Key:
[1] = molecular target: Human Serum Albumin (HSA) (human) (UniProt P02768); test: LSPR absorbance shift of HSA-conjugated gold nanorods in suspension, dose response at equilibrium; 600 ug/mL HSA (full coverage), BSA block, 30 min incubation; filing says the value deviates through ligand depletion
[2] = molecular target: Human Serum Albumin (HSA) (human) (UniProt P02768); test: LSPR absorbance shift of HSA-conjugated gold nanorods; carboxyl groups blocked with BSA at 200 ug/mL, 60 min incubation
[3] = molecular target: Human Serum Albumin (HSA) (human) (UniProt P02768); test: LSPR absorbance shift of HSA-conjugated gold nanorods; carboxyl groups blocked with mPEG-NH2 at 16700 ug/mL, 60 min incubation
[4] = molecular target: Human Serum Albumin (HSA) (human) (UniProt P02768); test: LSPR absorbance shift of HSA-conjugated gold nanorods; carboxyl groups blocked with ovalbumin at 200 ug/mL, 60 min incubation
[5] = molecular target: Human Serum Albumin (HSA) (human) (UniProt P02768); test: LSPR absorbance shift of HSA-conjugated gold nanorods; 18.75 ug/mL HSA (partial coverage), BSA block, 60 min incubation
[6] = molecular target: Human Serum Albumin (HSA) (human) (UniProt P02768); test: LSPR absorbance shift of HSA-conjugated gold nanorods; 600 ug/mL HSA (full coverage), BSA block, 60 min incubation; filing says the value deviates through ligand depletion
[7] = molecular target: Human Serum Albumin (HSA) (human) (UniProt P02768); test: LSPR absorbance shift of HSA-conjugated gold nanorods in suspension, dose response at equilibrium; 18.75 ug/mL HSA (partial coverage), BSA block, 30 min incubation
[8] = molecular target: Human Serum Albumin (HSA) (human) (UniProt P02768); test: LSPR absorbance shift of HSA-conjugated gold nanorods; 37.5 ug/mL HSA (partial coverage), BSA block, 60 min incubation

Sequence of UniProt P02768 (P02768 25-609 limits assumed): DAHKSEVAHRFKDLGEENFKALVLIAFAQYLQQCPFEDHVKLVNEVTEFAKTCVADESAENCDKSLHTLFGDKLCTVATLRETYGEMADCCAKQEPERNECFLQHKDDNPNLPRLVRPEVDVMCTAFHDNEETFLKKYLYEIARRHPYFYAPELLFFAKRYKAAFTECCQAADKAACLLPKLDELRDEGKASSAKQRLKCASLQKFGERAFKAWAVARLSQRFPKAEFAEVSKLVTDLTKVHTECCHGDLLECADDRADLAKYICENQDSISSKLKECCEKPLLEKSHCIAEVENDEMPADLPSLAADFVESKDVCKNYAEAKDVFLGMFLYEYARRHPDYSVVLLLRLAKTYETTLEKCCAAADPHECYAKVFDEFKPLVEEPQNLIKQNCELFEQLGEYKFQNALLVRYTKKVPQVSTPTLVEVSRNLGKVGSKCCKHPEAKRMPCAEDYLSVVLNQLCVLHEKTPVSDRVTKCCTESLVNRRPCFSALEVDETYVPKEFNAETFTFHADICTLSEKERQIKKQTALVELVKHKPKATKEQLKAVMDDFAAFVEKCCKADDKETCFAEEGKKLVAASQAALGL

Anti-Human Serum Albumin monoclonal antibody (ab18081, available from Abcam)
Kd [1]: 99.4 nM
Kd [2]: 8.44 nM
Kd [3]: 2.5 nM
Kd [4]: 5.22 nM
Kd [5]: 3.8 nM
Kd [6]: 252 nM
Kd [7]: 6.41 nM
Kd [8]: 5.5 nM
